This note sets out measurements from article PMC3059353.

Substrate in the data set: Nc1ncnc2nc[nH]c12
The data set is described as follows: steady-state kinetics of purified enzyme, GDH-coupled ammonia assay. In kind it is biochemical, Agrobacterium fabrum. Conditions: binuclear Mn2+ active site at binuclear metal center (adenine pose only modeled).

B1: adenine deaminase Atu4426 (Agrobacterium fabrum str. C58) (protein)
chain: MTAQIRLAEPADLNDDTLRARAVAAARGDQRFDVLITGGTLVDVVTGELRPADIGIVGALIASVHEPASRRDAAQVIDAGGAYVSPGLIDTHMHIESSMITPAAYAAAVVARGVTTIVWDPHEFGNVHGVDGVRWAAKAIENLPLRAILLAPSCVPSAPGLERGGADFDAAILADLLSWPEIGGIAEIMNMRGVIERDPRMSGIVQAGLAAEKLVCGHARGLKNADLNAFMAAGVSSDHELVSGEDLMAKLRAGLTIELRGSHDHLLPEFVAALNTLGHLPQTVTLCTDDVFPDDLLQGGGLDDVVRRLVRYGLKPEWALRAATLNAAQRLGRSDLGLIAAGRRADIVVFEDLNGFSARHVLASGRAVAEGGRMLVDIPTCDTTVLKGSMKLPLRMANDFLVKSQGAKVRLATIDRPRFTQWGETEADVKDGFVVPPEGATMISVTHRHGMAEPTTKTGFLTGWGRWNGAFATTVSHDSHNLTVFGGNAGDMALAANAVIGTGGGMAVASEGKVTAILPLPLSGLVSDAPLEEVARAFEDLREAVGKVVEWQPPYLVFKACFGATLACNIGPHQTDMGIADVLTGKVMESPVIEVLG
A word on the Km: it is the concentration of substrate that gives half-maximal velocity. Take B1: the Km was determined as 320 ± 40 µM.
